Assay results reported in PMC11266516.

Target: Fc gamma receptors on mouse peritoneal macrophages (mouse (endogenous in peritoneal macrophages))
Test: flow cytometry on cells; ImageStream X imaging flow cytometry; peritoneal wash cells (2 x 10^6) in 100 uL 1% BSA PBS stained with 0.125 ug mouse IgG-DyLight 405 and anti-CD11b-FITC, 30 min, room temperature; no Fc block

mouse IgG-DyLight 405 (fluorescently conjugated mouse monomeric IgG) (antibody)
percent of CD11b+ macrophages that bound exogenous IgG: 98.6%
